{"source": "the RNAGym collection of RNA variant scans (doi:10.7554/elife.80360)", "parents": {"B1": {"name": "HDV Ribozyme (parent)", "chain": "GGCCGGCAUGGUCCCAGCCUCCUCGCUGGCGCCGGCUGGGCAACAUUCCGAGGGGACCGUCCCCUCGGUAAUGGCGAAUGGGACCCA"}}}
{"variants_of": "B1", "assay": "self-cleavage, relative activity (ratio to wild type); higher = more cleavage; co-transcriptional"}
{"variant": "U20C G38U", "self-cleavage": 0}
{"variant": "U20C G38C", "self-cleavage": 0.0831}
{"variant": "C21A C49U", "self-cleavage": 0.0272}
{"variant": "C21A C49A", "self-cleavage": 0.157}
{"variant": "U20G U47G", "self-cleavage": 0.185}
{"variant": "C21G C85A", "self-cleavage": 0.0504}
{"variant": "U20G A78U", "self-cleavage": 0}
{"variant": "U20C C62A", "self-cleavage": 0}
{"variant": "C21A G68C", "self-cleavage": 0}
{"variant": "U20G G76U", "self-cleavage": 0.388}
{"variant": "C21G G80A", "self-cleavage": 0.0196}
{"variant": "C21G G80U", "self-cleavage": 0.0963}
{"variant": "C21G A43U", "self-cleavage": 0}
{"variant": "C21G A43C", "self-cleavage": 0}
{"variant": "C21G A43G", "self-cleavage": 0.128}
{"variant": "U20G G54A", "self-cleavage": 0.201}
{"variant": "U20G G54U", "self-cleavage": 0.125}
{"variant": "U20G G38U", "self-cleavage": 0.0573}
{"variant": "C21A U69G", "self-cleavage": 0.0723}
{"variant": "C21G A71U", "self-cleavage": 0}
{"variant": "C21G G40U", "self-cleavage": 0.0308}
{"variant": "C21A C75U", "self-cleavage": 0.0297}
{"variant": "U20C U46G", "self-cleavage": 0}
{"variant": "U20C C86U", "self-cleavage": 0.138}
{"variant": "C21A G40A", "self-cleavage": 0.0647}
{"variant": "U20C U79A", "self-cleavage": 0}
{"variant": "C21A C41A", "self-cleavage": 0.121}
{"variant": "C21A U27G", "self-cleavage": 0.0639}
{"variant": "C21A C63G", "self-cleavage": 0.0978}
{"variant": "C21A G29C", "self-cleavage": 0.0604}
{"variant": "C21A G29A", "self-cleavage": 0.0875}
{"variant": "U20G A51C", "self-cleavage": 0.332}
{"variant": "U20G A51G", "self-cleavage": 0.145}
{"variant": "C21A G34U", "self-cleavage": 0.0647}
{"variant": "U20G A71U", "self-cleavage": 0.151}
{"variant": "C21A G54A", "self-cleavage": 0.0437}
{"variant": "U20C U37G", "self-cleavage": 0.185}
{"variant": "U20C U37A", "self-cleavage": 0.107}
{"variant": "C21A A70G", "self-cleavage": 0}
{"variant": "U20C G81U", "self-cleavage": 0}
{"variant": "U20G C44G", "self-cleavage": 0}
{"variant": "U20G C44U", "self-cleavage": 0.192}
{"variant": "C21A U46G", "self-cleavage": 0.138}
{"variant": "C21G G73U", "self-cleavage": 0.026}
{"variant": "C21G G73C", "self-cleavage": 0.17}
{"variant": "U20G G53U", "self-cleavage": 0.208}
{"variant": "U20C G40U", "self-cleavage": 0.113}
{"variant": "U20C U65A", "self-cleavage": 0.166}
{"variant": "C21G C26U", "self-cleavage": 0.0615}
{"variant": "C21G C26A", "self-cleavage": 0}
{"variant": "C21A U79G", "self-cleavage": 0.0396}
{"variant": "C21G C86U", "self-cleavage": 0.0791}
{"variant": "C21A G38A", "self-cleavage": 0.0237}
{"variant": "C21G G55U", "self-cleavage": 0.0755}
{"variant": "C21G A51C", "self-cleavage": 0}
{"variant": "C21A G28A", "self-cleavage": 0.0268}
{"variant": "U20G G59C", "self-cleavage": 0.361}
{"variant": "U20G G59U", "self-cleavage": 0.231}
{"variant": "C21G G76A", "self-cleavage": 0.0386}
{"variant": "C21A G53U", "self-cleavage": 0.135}
{"variant": "U20C G76A", "self-cleavage": 0.198}
{"variant": "U20C G76U", "self-cleavage": 0.17}
{"variant": "U20G U46A", "self-cleavage": 0.192}
{"variant": "C21G C44U", "self-cleavage": 0.0898}
{"variant": "C21G C44A", "self-cleavage": 0}
{"variant": "C21G G31U", "self-cleavage": 0}
{"variant": "C21G G31C", "self-cleavage": 0.147}
{"variant": "C21G C84G", "self-cleavage": 0}
{"variant": "C21G C84U", "self-cleavage": 0.0231}
{"variant": "U20G C66G", "self-cleavage": 0.511}
{"variant": "U20C G67A", "self-cleavage": 0.17}
{"variant": "C21G A83C", "self-cleavage": 0}
{"variant": "C21A G81A", "self-cleavage": 0.0647}
{"variant": "C21G G67A", "self-cleavage": 0}
{"variant": "C21G A70U", "self-cleavage": 0.111}
{"variant": "U20C G74U", "self-cleavage": 0.104}
{"variant": "C21G G34U", "self-cleavage": 0.0604}
{"variant": "C21G C62A", "self-cleavage": 0.119}
{"variant": "C21G C62U", "self-cleavage": 0}
{"variant": "U20G C33G", "self-cleavage": 0.185}
{"variant": "C21G G52A", "self-cleavage": 0.0287}
{"variant": "U20G U37G", "self-cleavage": 0}
{"variant": "C21G G35U", "self-cleavage": 0.104}
{"variant": "U20C G39C", "self-cleavage": 0.185}
{"variant": "U20G C41A", "self-cleavage": 0.145}
{"variant": "U20C G50A", "self-cleavage": 0.306}
{"variant": "C21A U47C", "self-cleavage": 0}
{"variant": "C21A U47G", "self-cleavage": 0.0504}
{"variant": "C21A U65A", "self-cleavage": 0.0405}
{"variant": "U20C G54U", "self-cleavage": 0.122}
{"variant": "C21G C30G", "self-cleavage": 0}
{"variant": "U20G G31C", "self-cleavage": 0}
{"variant": "U20G G31A", "self-cleavage": 0}
{"variant": "U20G G25U", "self-cleavage": 0.166}
{"variant": "U20G G73A", "self-cleavage": 0.113}
{"variant": "U20C G29A", "self-cleavage": 0.0773}
{"variant": "U20G C64U", "self-cleavage": 0.291}
{"variant": "U20G G74U", "self-cleavage": 0}
{"variant": "C21G C41U", "self-cleavage": 0.0941}
{"variant": "U20G G67C", "self-cleavage": 0.554}
{"variant": "C21A C62A", "self-cleavage": 0.185}
{"variant": "U20C G34C", "self-cleavage": 0}
{"variant": "C21A G73A", "self-cleavage": 0.161}
{"variant": "C21A G73U", "self-cleavage": 0.0528}
{"variant": "C21G C33A", "self-cleavage": 0}
{"variant": "C21G C33U", "self-cleavage": 0}
{"variant": "C21G C33G", "self-cleavage": 0.101}
{"variant": "U20C G55A", "self-cleavage": 0.0405}
{"variant": "U20C G53C", "self-cleavage": 0.151}
{"variant": "U20C G68U", "self-cleavage": 0.145}
{"variant": "U20C G68A", "self-cleavage": 0.111}
{"variant": "U20C G68C", "self-cleavage": 0.192}
{"variant": "U20G G34A", "self-cleavage": 0}
{"variant": "U20G G55U", "self-cleavage": 0.332}
{"variant": "U20C U47A", "self-cleavage": 0.133}
{"variant": "U20C C58G", "self-cleavage": 0.0923}
{"variant": "C21A C33G", "self-cleavage": 0.0554}
{"variant": "C21A A56U", "self-cleavage": 0.108}
{"variant": "C21A C84U", "self-cleavage": 0.0489}
{"variant": "U20G C75U", "self-cleavage": 0.0875}
{"variant": "U20G C21U", "self-cleavage": 0.26}
{"variant": "U20C C49A", "self-cleavage": 0.172}
{"variant": "C21A C36A", "self-cleavage": 0.117}
{"variant": "C21A C32G", "self-cleavage": 0.0426}
{"variant": "C21G C24G", "self-cleavage": 0.0504}
{"variant": "U20C G80A", "self-cleavage": 0.0496}
{"variant": "U20C C75A", "self-cleavage": 0.0594}
{"variant": "C21A U60A", "self-cleavage": 0.0361}
{"variant": "C21A U60C", "self-cleavage": 0.0739}
{"variant": "U20G U60C", "self-cleavage": 0.111}
{"variant": "C21G C61U", "self-cleavage": 0.032}
{"variant": "C21A A42G", "self-cleavage": 0.158}
{"variant": "U20G C61A", "self-cleavage": 0.142}
{"variant": "U20C C61U", "self-cleavage": 0.0723}
{"variant": "U20C C85G", "self-cleavage": 0.0519}
{"variant": "C21A G25U", "self-cleavage": 0.113}
{"variant": "U20G G82A", "self-cleavage": 0.123}
{"variant": "U20G C32G", "self-cleavage": 0.0475}
{"variant": "C21G G82A", "self-cleavage": 0.101}
{"variant": "U20G A42U", "self-cleavage": 0}
{"variant": "C21A G59C", "self-cleavage": 0.116}
{"variant": "U20G U72A", "self-cleavage": 0.0875}
{"variant": "C21G A87U", "self-cleavage": 0.0723}
{"variant": "C21G A87C", "self-cleavage": 0.0594}
{"variant": "C21G A87G", "self-cleavage": 0.0462}
{"variant": "U20C G82C", "self-cleavage": 0.0639}
{"variant": "C21A C66U", "self-cleavage": 0.0683}
{"variant": "C21A C66A", "self-cleavage": 0.0755}
{"variant": "U20G A77G", "self-cleavage": 0.0692}
{"variant": "U20G A77U", "self-cleavage": 0.237}
{"variant": "U20G A77C", "self-cleavage": 0.178}
{"variant": "U20G U65C", "self-cleavage": 0.222}
{"variant": "U20G U65A", "self-cleavage": 0.138}
{"variant": "U20C G31C", "self-cleavage": 0.0594}
{"variant": "C21A G31A", "self-cleavage": 0.0482}
{"variant": "C21A U72G", "self-cleavage": 0.166}
{"variant": "U20C G73U", "self-cleavage": 0.0875}
{"variant": "U20G A83C", "self-cleavage": 0.158}
{"variant": "U20G A83G", "self-cleavage": 0.16}
{"variant": "C21G A56C", "self-cleavage": 0.0386}
{"variant": "C21A G74A", "self-cleavage": 0.0536}
{"variant": "U20G U69G", "self-cleavage": 0.0831}
{"variant": "U20C U27G", "self-cleavage": 0.185}
{"variant": "C21A C48G", "self-cleavage": 0.122}
{"variant": "U20G C22G", "self-cleavage": 0.266}
{"variant": "U20G C22A", "self-cleavage": 0.185}
{"variant": "U20G C22U", "self-cleavage": 0.145}
